Source: paper PMC4874776

How the values were obtained:
[1] = biological target: reg-FSFG, an artificially designed regular FSFG domain with 16 repetitions of the sequence … and an N-terminal His14-TEV tag; assay: spectroscopic ellipsometry + QCM-D; FG domain end-grafted through its His tag (4-11 pmol/cm^2) on His tag capturing QCM-D sensors (NTF2 with Nsp1) or on Ni2+-NTA supported lipid bilayers (Nup98-glyco, reg-FSFG, Impβ with Nsp1); NTR titrated in solution from 0.0025 to 10 uM, equilibrium bound amounts by SE; 10 mM Hepes pH 7.4, 150 mM NaCl, 23 °C; linear fit at cNTR <= 0.05 uM, Hill equation at 0.05-10 uM
[2] = biological target: glycosylated FG domain of Nup98 from Xenopus tropicalis (Nup98-glyco), amino acids 1 to 485, with an N-terminal His14-TEV tag (X. tropicalis); assay: as above
[3] = biological target: reg-FSFG, an artificially designed regular FSFG domain with 16 repetitions of the sequence … and an N-terminal His14-TEV tag; assay: spectroscopic ellipsometry; NTF2 and NTF2 W7A mutant sequentially exposed to FG domain films (5-13 pmol/cm^2), equilibrium bound amounts by SE, two to four measurements per FG domain type; native NTF2 on a reg-SSSG film (8.3 pmol/cm^2) as control
[4] = biological target: glycosylated FG domain of Nup98 from Xenopus tropicalis (Nup98-glyco), amino acids 1 to 485, with an N-terminal His14-TEV tag (X. tropicalis); assay: as above

FG motifs in the film per bound NTR at cNTR = 10 uM (FG motifs per bound NTF2 dimer) [1] | FG motifs in the film per bound NTR at cNTR = 10 uM (FG motifs per bound NTF2 dimer) [2] | reduction of the equilibrium bound amount against native NTF2 [3] | reduction of the equilibrium bound amount against native NTF2 [4] | Substance
> 10 | > 10 |  |  | nuclear transport factor 2 from Homo sapiens (NTF2) (from UniProt P61970 1-127) (receptor)
 |  | > 80% | > 80% | W7A mutant of NTF2 (from UniProt P61970 1-127) (receptor)
